In the supplement of paper PMC12042874 one finds amyloid nucleation score data, which are given here for 130 substances.

± gives the uncertainty stated by the source.

This data set in a line: amyloid nucleation score (Sup35N fusion, yeast selection) (log enrichment); library NNK3; higher = more nucleation; inactive = no reads after selection. The procedure, abridged:
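Sup35N was fused to peptides of 20 random codons and expressed in psi-negative yeast, which were induced with 100 μM copper sulfate for 24 hours and then grown on medium lacking adenine and uracil for 7 days at 30°C. Plasmid inserts from input and output were sequenced on Illumina. The nucleation score is the DiMSum log enrichment of output over input reads, centred on the mode score of non-aggregating sequences. Sequences with under 100 input reads were left out, and random libraries had three technical output replicates.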
LPTIQILRQNTVPIGVHHKF: the amyloid nucleation score entry is “inactive”. LNIQFFINLALAEGFLYNRK came in with an amyloid nucleation score of 2.97 ± 0.084. With TYGTCVGQK, the amyloid nucleation score result was “inactive”.

YRDRIGWQVVISII: the amyloid nucleation score was -0.087 ± 0.27. In the case of VFLKSNSAVQLSFRFNYHNL, the amyloid nucleation score entry was “inactive”. As to GMSSLIGIDMNLSEKFGYPY, the amyloid nucleation score result was “inactive”. For ESFVGEGDRSWSGHGNFITV, the amyloid nucleation score result is “inactive”. With TFDSYPFVKGGISWPNMKYL, the amyloid nucleation score result is “inactive”. Take YKLRVNSVETNCTEILTLVE: the amyloid nucleation score entry is “inactive”. Consider CNKSFRLYEMM, for which the amyloid nucleation score entry was “inactive”. Under FVAVVSRDISNYSRGRSEKR stands “inactive”. Take RPRWFGPRSVVGMRASCTCW: the amyloid nucleation score entry was “inactive”.

For the substance VIGHMIGMDY, the amyloid nucleation score entry is “inactive”. Take SNFINVGSRLMTSWRGYAYM: the amyloid nucleation score entry is “inactive”. For ADKRSMMWKFMFSRFCGRVT, the amyloid nucleation score result was “inactive”. Under LFSSRYDLIDVNVRGVDYSQ stands “inactive”.

NHGATLFECSYCNCSLAFR: the amyloid nucleation score came to 2.83 ± 0.081. Take AVLCELVQDMFSLGVYVCHE: the amyloid nucleation score turned out to be 0.531 ± 0.32.

Turning to DIAKCNACGHENMFCRWMCV, the amyloid nucleation score result was “inactive”. In the case of MQMMGNEILRFFFVSVLNIN, the amyloid nucleation score result is “inactive”. Next, VSSSSEVHCYSSFMYISKSP: 0.824 ± 0.16.

Regarding IDDQLCQ, the amyloid nucleation score entry is “inactive”.

Turning to SHVNRVRSLYVGE, the amyloid nucleation score entry was “inactive”. The substance KYITHLFFFILSERYCWFPM showed an amyloid nucleation score of -0.341 ± 0.56.

RMDADI: the amyloid nucleation score entry is “inactive”. As to LRGFMISSWDFFADGSDVRL, the amyloid nucleation score result was “inactive”. Take KPMGYYLFDVTTELYDNDWF: the amyloid nucleation score result is “inactive”.

Turning to RRLVMDTTRLACKRYWRFLN, the amyloid nucleation score entry is “inactive”. Under RTRSVLQIWLSFMMLCQACW stands -0.534 ± 1.5. In the case of GSKLICIVWLFLLFG, the amyloid nucleation score result was “inactive”. Turning to PNLMLPCTSGRELMKVSNVL, the amyloid nucleation score result is “inactive”. For the substance SNIVFVPRSLQRREDGRRMD, the amyloid nucleation score entry was “inactive”. Regarding FMGADVAQRMFYKSANGCEW, the amyloid nucleation score result was “inactive”. Regarding NVECSCDPEKTFIPKSVSLK, the amyloid nucleation score worked out at 0.102 ± 0.63. Consider LFCLKIKLEAERRYLQGLRH, for which the amyloid nucleation score was 1.72 ± 0.09. TSSLWHWMCLEITLPSRSCK: the amyloid nucleation score result was “inactive”. WGCALCSYDACRLES showed an amyloid nucleation score of 2.52 ± 0.068. For the substance GRYHDGAAQWGRHNVFRSSA, the amyloid nucleation score entry is “inactive”. Next, DDASFIMERI: “inactive”; VTVLQM: “inactive”. For DCVRVRVLKSGTYLLYRSEA, the amyloid nucleation score result is “inactive”.

For NYLYVELIWLHFSSMALRDD, the amyloid nucleation score result is “inactive”.

For CMTTASVQDKMVLLVWLLDE, the amyloid nucleation score entry is “inactive”. Turning to FHNAFAFLSHWGVMVRSFEG, the amyloid nucleation score entry was “inactive”. Consider FWGMLVEYLVNSQCYIKFE, for which the amyloid nucleation score result was “inactive”. With IFACLHGAREVFLFQWLGFE, the amyloid nucleation score result is “inactive”.

For AQILYYLYYT, the amyloid nucleation score entry was “inactive”. In the case of WDFDVSVIGLMYKFRSVELG, the amyloid nucleation score entry was “inactive”. Turning to SLPGSKYKAFH, the amyloid nucleation score result was “inactive”.

With KLWFGHMPTIF, the amyloid nucleation score entry was “inactive”.

Turning to IRYCGHIRTGCFRLISDLF, the amyloid nucleation score entry is “inactive”. ISTVFLVISSAGTCPSHDKE gave an amyloid nucleation score of 1.32 ± 0.095. On to FKFALPHSNIGFTISSRFGC, for which the amyloid nucleation score was found to be 0.478 ± 0.16. Regarding ELSHQVCYSVGCACETSDGQ, the amyloid nucleation score result is “inactive”. Take LNYTEASYSLTGHTISISTV: the amyloid nucleation score is -0.156 ± 1.5. Regarding CMMSWIDSNFRGSEMLTH, the amyloid nucleation score entry was “inactive”.

Turning to VHMNRSGSAALEFGMLWEYI, the amyloid nucleation score result was “inactive”.

Regarding PTVKKLYMQLFLSPCISSEG, the amyloid nucleation score entry was “inactive”. Regarding YKWARYVFTTDNYFWVPAGY, the amyloid nucleation score result was “inactive”.

As for AVWTCIGWDERTKMLYKFIR, the amyloid nucleation score result was “inactive”. In the case of ILILS, the amyloid nucleation score result is “inactive”. Under YYYQNRYFELRHLPEFSS stands “inactive”; under WSVQMNRITDSSLDCMMMH, “inactive”; under SYVCWDIFIGQRSNAALSTI, “inactive”. With IVWTVFNALQPLGNALRVSV, the amyloid nucleation score entry is “inactive”.

The substance IYLYYGRTYSTFLWEV showed an amyloid nucleation score of 0.762 ± 0.12. Under GSVGFIIKGWWSTE stands 0.621 ± 0.26. As to ISINLIVRCRRLHTPHLPVK, the amyloid nucleation score result was “inactive”. With FETGCW, the amyloid nucleation score result was “inactive”. The substance CLSFYCTVSKKVRRKAVTPF came in with an amyloid nucleation score of 0.807 ± 0.2.

For the substance LVFYMFAFITFVIYMMLIFY, the amyloid nucleation score was 0.163 ± 0.29. Turning to IYTFSCDIYCNMSFCLWFDN, the amyloid nucleation score was 2 ± 0.088. Take FIVVVTYARWHSRYVSGWVS: the amyloid nucleation score entry is “inactive”. Next, MYLGGKALIRPFPVYATAAW: “inactive”; IKAVSYTVSVSPPCFSSKSH: 0.402 ± 0.18; IFACVLHVVTW: “inactive”. Next, GRRMWCCREAHRSNDQV: 1.28 ± 0.11; NNSGLSFFSNLGWVLHGDLV: “inactive”; SSSSMFALLPICY: “inactive”. YINFISWNVCVSCLFWLDSV came in with an amyloid nucleation score of 2.09 ± 0.054. Turning to GRGYSSSTLWVLGWFD, the amyloid nucleation score result was “inactive”.

Regarding LASLTRLLDFMMSVENTYSA, the amyloid nucleation score result was “inactive”. Next, RFNTDSQPAVMIVFRYNRLR: “inactive”; FDVFISENNDAGSHNVEMYQ: “inactive”; DCGATSLKTMASGLRMKRTS: “inactive”.

Take TQGSLTILLGLVTEMLCAYS: the amyloid nucleation score result was “inactive”. As for ARHSCA, the amyloid nucleation score result is “inactive”. As to LSGSRTRSRFPDCLNCIS, the amyloid nucleation score entry was “inactive”.

As for IYSSCPFNLTSRMVGF, the amyloid nucleation score entry was “inactive”. Next, TDYQNWFNVEINKF: 1.48 ± 0.14; NQCIAYYGISRLWQM: “inactive”. For VFGPLYSSYDIRQ, the amyloid nucleation score entry was “inactive”.

As to VCSFDMRDLQKTE, the amyloid nucleation score result is “inactive”. For the substance LSEMANDHEHVYSYRKAHYM, the amyloid nucleation score is -0.626 ± 0.8.

As to CICLVDPERLKDKTI, the amyloid nucleation score result was “inactive”.

On to IVYILRFRTSMLC, for which the amyloid nucleation score entry is “inactive”. In the case of LRFMRSI, the amyloid nucleation score result is “inactive”. LTAVLLTPYSLFGFALWWFV displayed an amyloid nucleation score of -0.487 ± 1.4. In the case of TKCLRVVKRTTYGSQEFLRK, the amyloid nucleation score result is “inactive”. In the case of PTILWAQYAGWGSKVWPPRL, the amyloid nucleation score result was “inactive”.

For RRCSIFLVVDIAGQLQRFMS, the amyloid nucleation score entry is “inactive”.

Turning to RQVTLARWTISIC, the amyloid nucleation score result was “inactive”. For WCDDFWLYVVLGYGLCFVLC, the amyloid nucleation score entry was “inactive”. For the substance RLFRWMPDNVTGRWMVYAWF, the amyloid nucleation score result was “inactive”. The substance RAMLLGFSCMVWVPWGQFGK came in with an amyloid nucleation score of 0.649 ± 0.22.

YNMNVFAGGCAMCMWISRLF had an amyloid nucleation score of 2.61 ± 0.074.

Turning to VLKASNFV, the amyloid nucleation score entry is “inactive”. Next, GLLLVIFNGFGFNDYEEFGM: “inactive”. In turn, HVFSITLAVGTYLLTRLYSQ gave an amyloid nucleation score of 1.07 ± 0.1. Turning to ALWWKRGVNMRNPSETRLAM, the amyloid nucleation score result is “inactive”. Next, SAVKWC: “inactive”; KNTSCWAATSADQRRVDFRR: “inactive”. SVSSLRYY: the amyloid nucleation score result is “inactive”.

For the substance CISQVVVGSTHTAIGARAFA, the amyloid nucleation score result was “inactive”. For the substance NLFDGTN, the amyloid nucleation score entry is “inactive”. Under SLNLEENLSFHGVCRMYFNE stands “inactive”; under NCKLFFSFGM, 1.49 ± 0.094; under LTNCRHSWWEDTTYSMWEVQ, “inactive”. In the case of YLEEARQYNLQRYWKDLKVL, the amyloid nucleation score result is “inactive”.

Take IDYAYGNVTNNPQKP: the amyloid nucleation score entry was “inactive”.

As for KDADMDLLSRYATRCGVSRL, the amyloid nucleation score result was “inactive”. Regarding YMVHDHFKSNFRMCGCGYFN, the amyloid nucleation score entry is “inactive”. Next, LLVRMILNYKELLVTAILQV: “inactive”. Turning to SFDVLSRV, the amyloid nucleation score result was “inactive”. Next, IIFLQIPNLFMGNKTRQKGA: “inactive”. VTMVSYYTCGEHNKVNILMQ yielded an amyloid nucleation score of 1.42 ± 0.097.

Take TVFMYRRVFSIRWG: the amyloid nucleation score entry was “inactive”.

As to TIVYSLT, the amyloid nucleation score result was “inactive”. Next, LYDCRRGNLVTSCWNKCCLP: “inactive”; FIVYMSTHRA: 1.67 ± 0.11.
